Substrate in the data set: Nc1ccccc1C(=O)C[C@H](N)C(=O)O
The conditions noted are these: Pseudomonas fluorescens.

One may read the Km as the substrate concentration at which the rate is half of its maximum.

Description: Compound was evaluated for its binding affinity against kynureninase isolated from Pseudomonas fluorescence

B1: Kynureninase (Homo sapiens), Q16719 (protein)
chain: MEPSSLELPADTVQRIAAELKCHPTDERVALHLDEEDKLRHFRECFYIPKIQDLPPVDLSLVNKDENAIYFLGNSLGLQPKMVKTYLEEELDKWAKIAAYGHEVGKRPWITGDESIVGLMKDIVGANEKEIALMNALTVNLHLLMLSFFKPTPKRYKILLEAKAFPSDHYAIESQLQLHGLNIEESMRMIKPREGEETLRIEDILEVIEKEGDSIAVILFSGVHFYTGQHFNIPAITKAGQAKGCYVGFDLAHAVGNVELYLHDWGVDFACWCSYKYLNAGAGGIAGAFIHEKHAHTIKPALVGWFGHELSTRFKMDNKLQLIPGVCGFRISNPPILLVCSLHASLEIFKQATMKALRKKSVLLTGYLEYLIKHNYGKDKAATKKPVVNIITPSHVEERGCQLTITFSVPNKDVFQELEKRGVVCDKRNPNGIRVAPVPLYNSFHDVYKFTNLLTSILDSAETKN
In the case of B1, the Km was found to be 25.6 µM.

The values are drawn from ChEMBL document CHEMBL1129705, “Synthesis of phosphinic acid transition state analogues for the reaction catalysed by kynureninase” (Bioorg Med Chem Lett, 1996).
